Experiments:
[1] = molecular target: T1, LASV L protein Strep407 (Lassa virus Bantou 289, UniProt A0A3S8NV63 1-2217); assay: EMSA; 0-1 uM L, 0.6 uM RNA; 4 mM Mg2+; […]) pH 7.0, 150 mM NaCl ([…]; settings: protein: recombinant; tags: internal StrepII-tag inserted after residue 407; chain copies: 2; label: 32P (5' end, T4 PNK); single strand
[2] = molecular target: T1, LASV L protein Strep407; assay: EMSA; […]) pH 7.0, 150 mM NaCl ([…]; settings: protein: recombinant; tags: internal StrepII-tag inserted after residue 407; chain copies: 2; label: 32P (5' end, T4 PNK); single strand

| Binder | binding result [1] | binding result [2] |
| --- | --- | --- |
| CGCACCGGGGAUCCUAGGC (ssRNA) [vRNA 5'] | binds |  |
| GCGCACCGGGGAUCCUAGGC (ssRNA) [vRNA 5'G] |  | binds |

From PMC6527160
